Data on 17 molecules can be found in patent US20240059799A1 (Pfizer, published 2024).

The IC50 is the concentration that inhibits the measured activity by half.

T1: recombinant human TL1A (human, UniProt O95150 71-251)
T1 construct: homotrimer; biotinylated for SPR capture; the ELISA paragraphs say only 'recombinant TL1A'; also called TNFSF15
T1 chain: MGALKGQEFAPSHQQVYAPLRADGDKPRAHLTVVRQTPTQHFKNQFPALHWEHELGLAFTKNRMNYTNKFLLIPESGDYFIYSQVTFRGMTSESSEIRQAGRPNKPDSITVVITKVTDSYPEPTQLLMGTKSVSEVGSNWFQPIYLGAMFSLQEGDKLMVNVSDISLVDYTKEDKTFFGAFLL

B1: TL1A-0033 (antibody, IgG1, V domains shown)
VH: QVQLVQSGAEVKKPGASVKVSCKASGYDFTYYGISWVRQAPGQGLEWMGWISTYNGNTHYARMLQGRVTMTTDTSTRTAYMELRSLRSDDTAVYYCARENYYGSGAFRGGMDVWGQGTTVTVSS
VL: EIVLTQSPATLSLSPGERATLSCRASQSVSSYLAWYQQKPGQAPRLLIYDASNRATGIPARFSGSGSGTDFTLTISSLEPEDFAVYYCQQRSNWPWTFGQGTKVEIKR
notes: IgG1/kappa variant of TL1A-0002
B2: TL1A-0081 (antibody, IgG1, V domains shown)
VH: QVQLVQSGAEVKKPGASVKVSCKASGYDFTYYGISWVRQAPGQGLEWMGWISAYNGNTHYARMLQGRVTMTTDTSTRTAYMELRSLRSDDTAVYYCARENYYGSGAYRGGMDVWGQGTTVTVSS
VL: EIVLTQSPATLSLSPGERATLSCRASQSVSSYLAWYQQKPGQAPRLLIYDASNRATGIPARFSGSGSGTDFTLTISSLEPEDFAVYYCQQRSNWPWTFGQGTKVEIKR
notes: as for B1
B3: TL1A-0061 (antibody, IgG1, V domains shown)
VH: QVQLVQSGAEVKKPGASVKVSCKASGFDFTYYGISWVRQAPGQGLEWMGWISTYNGNTHYARMLQGRVTMTTDTSTRTAYMELRSLRSDDTAVYYCARENYYGSGAYRGGMDVWGQGTTVTVSS
VL: EIVLTQSPATLSLSPGERATLSCRASQSVSSYLAWYQQKPGQAPRLLIYDASNRATGIPARFSGSGSGTDFTLTISSLEPEDFAVYYCQQRSNWPWTFGQGTKVEIKR
notes: as for B1
B4: TL1A-0063 (antibody, IgG1, V domains shown)
VH: QVQLVQSGAEVKKPGASVKVSCKASGYDFSYYGISWVRQAPGQGLEWMGWISTYNGNTHYARMLQGRVTMTTDTSTRTAYMELRSLRSDDTAVYYCARENYYGSGAYRGGMDVWGQGTTVTVSS
VL: EIVLTQSPATLSLSPGERATLSCRASQSVSSYLAWYQQKPGQAPRLLIYDASNRATGIPARFSGSGSGTDFTLTISSLEPEDFAVYYCQQRSNWPWTFGQGTKVEIKR
notes: as for B1
B5: TL1A-0074 (antibody, IgG1, V domains shown)
VH: QVQLVQSGAEVKKPGASVKVSCKASGYDFTYYGISWVRQAPGQGLEWMGWISTYNTNTHYAPSLQGRVTMTTDTSTRTAYMELRSLRSDDTAVYYCARENYYGSGAYRGGMDVWGQGTTVTVSS
VL: EIVLTQSPATLSLSPGERATLSCRASQSVSSYLAWYQQKPGQAPRLLIYDASNRATGIPARFSGSGSGTDFTLTISSLEPEDFAVYYCQQRSNWPWTFGQGTKVEIKR
notes: as for B1
B6: TL1A-0080 (antibody, IgG1, V domains shown)
VH: QVQLVQSGAEVKKPGASVKVSCKASGYDFTYYGISWVRQAPGQGLEWMGWISTYGGNTHYARMLQGRVTMTTDTSTRTAYMELRSLRSDDTAVYYCARENYYGSGAYRGGMDVWGQGTTVTVSS
VL: EIVLTQSPATLSLSPGERATLSCRASQSVSSYLAWYQQKPGQAPRLLIYDASNRATGIPARFSGSGSGTDFTLTISSLEPEDFAVYYCQQRSNWPWTFGQGTKVEIKR
notes: as for B1
B7: TL1A-0067 (antibody, IgG1, V domains shown)
VH: QVQLVQSGAEVKKPGASVKVSCKASGYDFTFYGISWVRQAPGQGLEWMGWISTYNGNTHYARMLQGRVTMTTDTSTRTAYMELRSLRSDDTAVYYCARENYYGSGAYRGGMDVWGQGTTVTVSS
VL: EIVLTQSPATLSLSPGERATLSCRASQSVSSYLAWYQQKPGQAPRLLIYDASNRATGIPARFSGSGSGTDFTLTISSLEPEDFAVYYCQQRSNWPWTFGQGTKVEIKR
notes: as for B1
B8: TL1A-0082 (antibody, IgG1, V domains shown)
VH: QVQLVQSGAEVKKPGASVKVSCKASGYDFTYYGISWVRQAPGQGLEWMGWISAYNGNTHYAQKLQGRVTMTTDTSTRTAYMELRSLRSDDTAVYYCARENYYGSGAYRGGMDVWGQGTTVTVSS
VL: EIVLTQSPATLSLSPGERATLSCRASQSVSSYLAWYQQKPGQAPRLLIYDASNRATGIPARFSGSGSGTDFTLTISSLEPEDFAVYYCQQRSNWPWTFGQGTKVEIKR
notes: as for B1
B9: TL1A-0069 (antibody, IgG1, V domains shown)
VH: QVQLVQSGAEVKKPGASVKVSCKASGYDFTYHGISWVRQAPGQGLEWMGWISTYNGNTHYARMLQGRVTMTTDTSTRTAYMELRSLRSDDTAVYYCARENYYGSGAYRGGMDVWGQGTTVTVSS
VL: EIVLTQSPATLSLSPGERATLSCRASQSVSSYLAWYQQKPGQAPRLLIYDASNRATGIPARFSGSGSGTDFTLTISSLEPEDFAVYYCQQRSNWPWTFGQGTKVEIKR
notes: as for B1
B10: TL1A-0040 (antibody, IgG1, V domains shown)
VH: QVQLVQSGAEVKKPGASVKVSCKASGYDFTYYGISWVRQAPGQGLEWMGWISTYNGNTHYARMLQGRVTMTTDTSTRTAYMELRSLRSDDTAVYYCARENYYGSGDHRGGMDVWGQGTTVTVSS
VL: EIVLTQSPATLSLSPGERATLSCRASQSVSSYLAWYQQKPGQAPRLLIYDASNRATGIPARFSGSGSGTDFTLTISSLEPEDFAVYYCQQRSNWPWTFGQGTKVEIKR
notes: as for B1
B11: TL1A-0062 (antibody, IgG1, V domains shown)
VH: QVQLVQSGAEVKKPGASVKVSCKASGYDYTYYGISWVRQAPGQGLEWMGWISTYNGNTHYARMLQGRVTMTTDTSTRTAYMELRSLRSDDTAVYYCARENYYGSGAYRGGMDVWGQGTTVTVSS
VL: EIVLTQSPATLSLSPGERATLSCRASQSVSSYLAWYQQKPGQAPRLLIYDASNRATGIPARFSGSGSGTDFTLTISSLEPEDFAVYYCQQRSNWPWTFGQGTKVEIKR
notes: as for B1
B12: TL1A-0071 (antibody, IgG1, V domains shown)
VH: QVQLVQSGAEVKKPGASVKVSCKASGYDFTYYGVSWVRQAPGQGLEWMGWISTYNGNTHYARMLQGRVTMTTDTSTRTAYMELRSLRSDDTAVYYCARENYYGSGAYRGGMDVWGQGTTVTVSS
VL: EIVLTQSPATLSLSPGERATLSCRASQSVSSYLAWYQQKPGQAPRLLIYDASNRATGIPARFSGSGSGTDFTLTISSLEPEDFAVYYCQQRSNWPWTFGQGTKVEIKR
notes: as for B1
B13: TL1A-0068 (antibody, IgG1, V domains shown)
VH: QVQLVQSGAEVKKPGASVKVSCKASGYDFTKYGISWVRQAPGQGLEWMGWISTYNGNTHYARMLQGRVTMTTDTSTRTAYMELRSLRSDDTAVYYCARENYYGSGAYRGGMDVWGQGTTVTVSS
VL: EIVLTQSPATLSLSPGERATLSCRASQSVSSYLAWYQQKPGQAPRLLIYDASNRATGIPARFSGSGSGTDFTLTISSLEPEDFAVYYCQQRSNWPWTFGQGTKVEIKR
notes: as for B1
B14: TL1A-0038 (antibody, IgG1, V domains shown)
VH: QVQLVQSGAEVKKPGASVKVSCKASGYDFTYYGISWVRQAPGQGLEWMGWISTYNGNTHYARMLQGRVTMTTDTSTRTAYMELRSLRSDDTAVYYCARENYYGSGDFRGGMDVWGQGTTVTVSS
VL: EIVLTQSPATLSLSPGERATLSCRASQSVSSYLAWYQQKPGQAPRLLIYDASNRATGIPARFSGSGSGTDFTLTISSLEPEDFAVYYCQQRSNWPWTFGQGTKVEIKR
notes: as for B1
B15: TL1A-0073 (antibody, IgG1, V domains shown)
VH: QVQLVQSGAEVKKPGASVKVSCKASGYDFTYYGISWVRQAPGQGLEWMGWISTYNTNTHYAQKLQGRVTMTTDTSTRTAYMELRSLRSDDTAVYYCARENYYGSGAYRGGMDVWGQGTTVTVSS
VL: EIVLTQSPATLSLSPGERATLSCRASQSVSSYLAWYQQKPGQAPRLLIYDASNRATGIPARFSGSGSGTDFTLTISSLEPEDFAVYYCQQRSNWPWTFGQGTKVEIKR
notes: as for B1
B16: TL1A-0079 (antibody, IgG1, V domains shown)
VH: QVQLVQSGAEVKKPGASVKVSCKASGYDFTYYGISWVRQAPGQGLEWMGWISTYQGNTHYARMLQGRVTMTTDTSTRTAYMELRSLRSDDTAVYYCARENYYGSGAYRGGMDVWGQGTTVTVSS
VL: EIVLTQSPATLSLSPGERATLSCRASQSVSSYLAWYQQKPGQAPRLLIYDASNRATGIPARFSGSGSGTDFTLTISSLEPEDFAVYYCQQRSNWPWTFGQGTKVEIKR
notes: as for B1
B17: TL1A-0076 (antibody, IgG1, V domains shown)
VH: QVQLVQSGAEVKKPGASVKVSCKASGYDFTYYGISWVRQAPGQGLEWMGWISTYNDNTHYAPSLQGRVTMTTDTSTRTAYMELRSLRSDDTAVYYCARENYYGSGAYRGGMDVWGQGTTVTVSS
VL: EIVLTQSPATLSLSPGERATLSCRASQSVSSYLAWYQQKPGQAPRLLIYDASNRATGIPARFSGSGSGTDFTLTISSLEPEDFAVYYCQQRSNWPWTFGQGTKVEIKR
notes: as for B1

This experiment concerns the target T1, recombinant human TL1A. Kind of experiment: competition ELISA vs bio-TL1A-0002. As for the experimental part:
For this competition ELISA assay procedure, 96-well high binding plates (Corning, product number 3590) were coated with 1 μg/mL recombinant TL1A in 100 μL/well in Phospate Buffered Saline (PBS) overnight at 4° C. Plates were then blocked in PBS+0.02% casein solution and washed with PBS+0.05% Tween-20 following standard ELISA protocol. […] Plates were washed with PBS+0.05% Tween-20 following standard ELISA protocol, and Streptavidin-HRP (Southern Biotech, product number 7100-05) diluted to 1:10,000 in assay buffer was added to plates and incubated for 25-30 minutes at room temperature. Next, the plates were washed with PBS+0.05% Tween-20 following standard ELISA protocol, and then TMB substrate (BioFX Laboratories, catalog number TMBW-0100-01) was added to plates. Reactions were stopped after approximately 5 minutes by adding 0.18 M ortho-phosphoric acid to each well and absorbance was read at 450 nm.
Background: ELISA stands for enzyme-linked immunosorbent assay.
For the molecule B1, the “Bioactivity relative to TL1A-0002” value is 0.8 fold and the IC50 amounted to 3.6 nM.
In the case of B2, the “Bioactivity relative to TL1A-0002” value amounted to 0.9 fold and the IC50 came out at 4.1 nM.
The like results for B3 were, in that order, 1 fold and 4.6 nM.
For B4 the same measures were 0.9 fold and 4.1 nM.
Turning to B5, the “Bioactivity relative to TL1A-0002” value came out at 1 fold and the IC50 was 4.5 nM.
For B6 the same measures were 1.1 fold and 5 nM.
The like results for B7 were, in that order, 1.1 fold and 5.1 nM.
The like results for B8 were, in that order, 1.2 fold and 5.2 nM.
Regarding B9, the “Bioactivity relative to TL1A-0002” value was found to be 0.9 fold and the IC50 came to 4.1 nM.
For B10 the same measures were 1 fold and 4.7 nM.
For B11 the same measures were 0.9 fold and 4 nM.
As to B12, the “Bioactivity relative to TL1A-0002” value came out at 0.9 fold and the IC50 was 3.9 nM.
The like results for B13 were, in that order, 1 fold and 4.6 nM.
The like results for B14 were, in that order, 1.6 fold and 7.2 nM.
For B15 the same measures were 1.1 fold and 5 nM.
Turning to B16, the “Bioactivity relative to TL1A-0002” value stood at 1.3 fold and the IC50 was found to be 5.8 nM.
For B17 the same measures were 1.2 fold and 5.4 nM.
